According to PMC6305311:

Substrate: O=[N+]([O-])c1ccc(O[C@@H]2O[C@H](CO)[C@@H](O)[C@H](O)[C@H]2O)cc1
Assay: purified protein
Details: 5 min, pNPG 0.5-5.0 mg/ml
[1] = optimal pH (6.0) and temperature
[2] = optimal pH 6.0 and temperature 50°C, pH 6.0, 50.0 °C

B1: AaBGL1 (Thermomonospora amylolytica) (protein)
chain: MNLPADFLFGAATSAYQIEGAPAADGRLPSIWDDFCRVPGAIAGGDTGDVACDHYHRWREDVALMRRLGLDAYRFSVAWPRVVPRGTGEVNRPGLDFYDRLVDALLAAGIRPFVTLYHWDLPSALQERGGWPSRDTAAHFADYAAVVAARLGDRVTDWTTLNEPLCTAWIGHLEGRFAPGVRDLRQAVHASHHLLLAHGLGAAAIRANASAPPSIGLVNNLSPIQAASDRPEDVRAAIRADGHVNRWWLDPAHGRGYPADMIEVYGVEPPVRDGDLETIAAPVEYVGLNYYFRQIVADDPDGPAPYARQVPVPGAQTTAMGWEVHADGLAELLLRLSEDYTAPRIYVTESGSAWDDKVGADGSINDQDRIAYLEDHLAAVARAAEAGAPVQGYFVWSLLDNFEWADGLDKRFGLVHVDYATQQRTVKASGHRYAEIIRAHRGAP
- Km [1]: 3300 µM
- Vmax [1]: 6.8 µmol/min/mg
- kcat [1]: 5.5 s⁻¹

B2: AaBGL2 (Thermomonospora amylolytica) (protein)
chain: MTAHETQAQIREPATAPFPQDFRWGAATSAYQIEGAVAEDGRGRSIWDTFCDTPGAVLGGDTAAEAVDHYHRYREDVALMAGLGLNAYRFSLSWPRIQPSGTGPADQRGLDFYRRLVDELLEAGIEPWITLYHWDLPQALEDKGGWPERDTALRFAEFAALAHGALGDRVSNWMTINEPWCAAYLGYASGEHAPGRREPAAALEAAHHLLLGHGLAVEAMRGQRSGARIGPAVNLYAVSPAADTPEDLDAARRIDGLQNRFFLDALLLGRYPDDLLEDLAPFGFADCVRDGDMRVVGVRNDLLGINYYTRHTVSGRPGDATQAVSSPFSTVSPWVGSEHVRFVGQGKPVTGMGWEVDPDGLLEVLARLHREYPAVPLYITENGAGYDDVLDADDAVRDDERIAYLDAHLRVCARAIDAGIPLRGYFTWSLMDNFEWAWGYSKRFGLVYVDYATQRRIPKASARWYARTIRRGGLPD
- Km [2]: 730 µM
- Vmax [2]: 1.9 µmol/min/mg
- kcat [2]: 1.7 s⁻¹
